Source: US5736356A, “Transglutaminase originating from Crassostrea gigas” (Ajinomoto Co., Inc., priority 1994, dated 1998)

Experiments:
[1] = molecular target: dimethylated casein
[2] = molecular target: dimethylated casein; remark: listed apart in the source
[3] = molecular target: dimethylated casein; remark: listed apart in the source
[4] = tested on: casein; experiment: Control of gelation of casein solution by NaCl and CaCl2; format: biochemical; design: key to degree of gelation: -: the solution was still in the solution state; ±: the solution was a high viscosity product; +: the solution was a gelated product
Method: To an aqueous solution of casein (available from Sigma Company) having a protein concentration of 1% by weight, there was added NaCl in such an amount that the concentration thereof was 0, 0.1 or 0.3M, while variously changing the calcium chloride concentration within the range of from 0 to 200 mM to thus investigate the gelation of the protein. In this connection, the purified transglutaminase was added in an amount corresponding to 4.0 units per 1 mg of the protein. After carrying out the reaction at 37° C. for 90 minutes, the degree of gelation was evaluated.

[5] = tested on: dimethylated casein and monodansylcadaverine; experiment: Transglutaminase activity of purification fractions (monodansylcadaverine incorporation into dimethylated casein, fluorescence); format: biochemical
Method: The activity of the transglutaminase is determined by reacting the enzyme with dimethylated casein and monodansylcadaverine as substrates and measuring an increase in the fluorescent intensity of casein due to the incorporation of monodansylcadaverine into the dimethylated casein. The composition of the reaction solution is as follows:
To 2.4 ml of the foregoing reaction solution, there is added 20 to 50 μl of the transglutaminase solution followed by carrying out the reaction at 37° C. for 30 min, terminating the reaction by addition of 100 μl of a 500 mM EDTA solution and then determining the fluorescent intensity of the reaction solution (using a device: RF-1500 available from Shimadzu Corporation; excitation wavelength: 350 nm; wavelength of emitted fluorescent rays: 480 nm). In respect of the unit of the activity, that required for increasing the fluorescent intensity by 1.0 within one minute is herein defined to be one unit.
Thus, the purified transglutaminase originating from Crassostrea gigas was obtained.

[6] = tested on: dimethylated casein and monodansylcadaverine; experiment: Effect of NaCl and Ca2+ on enzyme activity; format: biochemical; settings: for effect of NaCl concentration on enzyme activity (in words): increasing NaCl concentration
[7] = tested on: methylated casein and monodansylcadaverine; experiment: Transglutaminase activity of crushed cell extract of transformed Saccharomyces cerevisiae; format: biochemical; settings: 0.35 ml supernatant, GAL1 induced; control: 1.2 μg protein
Method: Then the transglutaminase activity of the crude extract was investigated by an activity-detection method which made use of an increase in the intensity of fluorescent light (the fluorescent intensity observed at 480 nm while exciting with the light rays of 350 nm) due to the linkage of monodansylcadaverine to methylated casein as an indication. […] More specifically, 20 μl of each crude extract was added to 2 ml of a solution comprising 50 mM Tris-HCl buffer (pH 8.5), 1 mg/ml methylated casein, 15 μM monodansylcadaverine and 10 mM calcium chloride, followed by stirring and keeping warm at 37° C. for 20 minutes. After the reaction, 100 μl of 500 mM EDTA solution was added to the reaction system and each reaction solution was inspected for the intensity of emitted fluorescent light using a fluorophotometer (Shimadzu RF-1500, available from Shimadzu Corporation).
The transformant was first inoculated on 50 ml of a glucose synthesis minimum medium (prepared by adding 2% glucose and 50 mg/ml of histidine to the foregoing synthesis minimum medium) contained in a Sakaguchi flask and cultivated at 30° C. for 24 hours by shaking culture to increase the number of the cells. […]

[8] = tested on: methylated casein and monodansylcadaverine; experiment: Transglutaminase activity of yeast crushed cell extract while changing the NaCl concentration; format: biochemical; settings: control: 1.2 μg protein
From the text: The crushed cell extract of the foregoing Saccharomyces cerevisiae INVSC2/pCGTG4S AJ14697 (FERM BP-4964) was inspected for the transglutaminase activity while changing the NaCl concentration in the reaction solution by way of comparison (Table 7).

[9] = tested on: methylated casein and monodansylcadaverine; experiment: Transglutaminase activity of crushed cell supernatant of transformed Escherichia coli (pCGTG4E); format: biochemical; settings: cultivation temp. 26° C.; control: 1.2 μg protein
From the text: Then the transglutaminase activity of the crude extract was investigated by an activity-detection method which made use of an increase in the intensity of fluorescent light (the fluorescent intensity observed at 480 nm while exciting with the light rays of 350 nm) due to the linkage of monodansylcadaverine to methylated casein as an indication. This activity-detection method is the method disclosed in Nippon Suisan Gakkaishi, 1991, 57, pp. 1203-1210 which is slightly modified. More specifically, 20 μl of each crude extract was added to 2 ml of a solution comprising 50 mM Tris-HCl buffer (pH 8.5), 1 mg/ml methylated casein, 15 μM monodansylcadaverine and 10 mM calcium chloride, followed by stirring and keeping warm at 37° C. for 20 minutes. After the reaction, 100 μl of 500 mM EDTA solution was added to the reaction system and each reaction solution was inspected for the intensity of emitted fluorescent light using a fluorophotometer (Shimadzu RF-1500, available from Shimadzu Corporation).
The colony of the transformant (FERM BP-4962) thus obtained was inoculated on 50 ml of LB culture medium (comprising 10 g/l of trypton, 5 g/l of yeast extract and 10 g/l of NaCl (pH 7.0)) supplemented with 50 mg/l of ampicillin and 10 mM of IPTG contained in a Sakaguchi flask, followed by cultivation at 26° C. for 21 hours and collection of the bacterial cells from the culture medium. […]

“recombinant type transglutaminase of Crassostrea gigas expressed in Saccharomyces cerevisiae INVSC2/pCGTG4S (enzyme)” showed an Increase in Fluorescent Intensity (increase in fluorescent intensity) [1] of 46.6.

“TGase originated from Cavia porcellus (available from Takara Co., Ltd.) (from UniProt P08587) (enzyme)” showed an Increase in Fluorescent Intensity/Cultivation Temp. (increase in fluorescent intensity) [2] of 4.3.

“transglutaminase originating from Crassostrea gigas (purified from natural Crassostrea gigas) (enzyme)” was tested, and the Specific Activity (unit/mg): incorporation of monodansylcadaverine into dimethylated casein, fluorescence [3] was 1400 unit/mg.

Work on “fusion protein of β-galactosidase and the TGase of Crassostrea gigas expressed by plasmid pCGTG4E (enzyme)” yielded an Increase in Fluorescent Intensity/Cultivation Temp. (increase in fluorescent intensity) [2] of 12.8.

B1: purified transglutaminase: transglutaminase isolated and purified from Crassostrea gigas (Japanese oyster); Mono-Q active fraction (protein)
chain: AFWGVFYTIYSGIRRIAGQPPEEDTSDKEQKRSRTKKALGSEEEEGRISSLSDEDLRARNKVLEPKDEPSATLNVSSVDCQTKLNRKNHHTNEFEKAGNIYRRGQAFVIRVEFDREVNSDHDVILLQFTYGSRPQESKGTVIRIPLDLKPTTKTSDVTETWFAEVKNIAGKGLECAITSAPDSSIGEYRFYIETNLKDTDAVKRYEENESMIILFNAWAKEDTVYMDKEGERGEYVLNETGRVWTSRTWYGRPWNFGQFDDPVLDVALQLLLEGGLSDVACTSPVSVIRCLSSLCNSCDNNGVLAGRWTKEYPKDCTVPWKWTGSVAIIKEYHTNGNKPVRYGQCWVFSGLLTTMCRCLGIPTRSVTNFDSAHDTDSSMTIDSHWDEDGEPLEDMNDSVWNFHVWNESWFRRLDLPEGYDGWQAHDATPQEASEGIMRCGPAPLTAIKEGHVYLNFDIPFVFGEVNGDRVQWVVKKDGTMEVSQIDHSAVGHYISTKRMGSNDREDVTNLYKYPDGSEQERRVAKFVNRYSTRRKQNIYKLDTTKVLKFTVSPPDNTLIGDDMEIKVAVKNTADGPLKLHLTVSLVNAYYTGVAGSRVKTQTFEETIKAKDEKIVTMPVKGTEYHDGMNPEGRFQLYISGKNIDSGSMESTQISFVLKKPQLVIQVPQTIEAKEETEATIVFKNTTQLVLTQAEIAVEGSGLLAPQTIDISSPIKPGDEVKKTVVLRPRKPYYWGRELIATFTSKQIVDIETSADIKVIRQNKDNDSDSD
With B1 the degree of gelation ([4]; NaCl 0 M, CaCl2 0 mM, 1% casein, 4.0 units/mg, 37° C. 90 min) was “-”, the degree of gelation ([4]; NaCl 0 M, CaCl2 10 mM) was “-” and the degree of gelation ([4]; NaCl 0 M, CaCl2 25 mM) was “-”. The degree of gelation ([4]; NaCl 0 M, CaCl2 50 mM) was “±”, the degree of gelation ([4]; NaCl 0 M, CaCl2 100 mM) was “+” and the degree of gelation ([4]; NaCl 0 M, CaCl2 200 mM) was “+”. For the same molecule, the degree of gelation ([4]; NaCl 0.1 M, CaCl2 0 mM) was “-”, the degree of gelation ([4]; NaCl 0.1 M, CaCl2 10 mM) was “-” and the degree of gelation ([4]; NaCl 0.1 M, CaCl2 25 mM) was “±”. For the same molecule, the degree of gelation ([4]; NaCl 0.1 M, CaCl2 50 mM) was “+”, the degree of gelation ([4]; NaCl 0.1 M, CaCl2 100 mM) was “+” and the degree of gelation ([4]; NaCl 0.1 M, CaCl2 200 mM) was “±”. The “Ca2+ concentration at which the casein solution underwent gelation” value ([4]; NaCl 0.3M) was “not less than 25 mM”, the degree of gelation ([4]; NaCl 0.3 M, CaCl2 0 mM) was “-” and the degree of gelation ([4]; NaCl 0.3 M, CaCl2 10 mM) was “±”. The degree of gelation ([4]; NaCl 0.3 M, CaCl2 25 mM) was “+”, the degree of gelation ([4]; NaCl 0.3 M, CaCl2 50 mM) was “+” and the degree of gelation ([4]; NaCl 0.3 M, CaCl2 100 mM) was “+”. The degree of gelation ([4]; NaCl 0.3 M, CaCl2 200 mM) was “+”, the “Ca2+ concentration at which the casein solution underwent gelation” value ([4]; free of NaCl) was “not less than 100 mM” and the specific activity ([5]; Mono-Q active fraction) was 1404 units/mg protein. The total activity ([5]; Mono-Q active fraction) was 358 units, the “specific activity” value ([5]; purification step, Table 1) was 1404 unit/mg and the “total activity” value ([5]; purification step, Table 1) was 368 unit. The “specific activity relative to that of the crude extract” value ([5]; purified solution vs crude extract) was “about 250 times”, the “effect of addition of KCl on enzyme activity (in words)” value [6] was “improved” and the “maximum activity in the presence of NaCl relative to that in the absence” value [6] was “about 2 times”. For the same molecule, the “Ca2+ concentration at which the activity reached the highest level” value ([6]; in the absence of NaCl) was “about 100 mM”, the “Ca2+ concentration at which the activity reached the highest level” value ([6]; in the presence of NaCl (0.5M)) was “about 10 mM” and the “effect of NaCl concentration on enzyme activity (in words)” value [6] was “increased as the NaCl concentration increased”.

B2: TGase of Cavia porcellus: TGase originated from Cavia porcellus (available from Takara Co., Ltd.), used as control (protein)
chain: AEDLILERCDLQLEVNGRDHRTADLCRERLVLRRGQPFWLTLHFEGRGYEAGVDTLTFNAVTGPDPSEEAGTMARFSLSSAVEGGTWSASAVDQQDSTVSLLLSTPADAPIGLYRLSLEASTGYQGSSFVLGHFILLYNPRCPADAVYMDSDQERQEYVLTQQGFIYQGSAKFINGIPWNFGQFEDGILDICLMLLDTNPKFLKNAGQDCSRRSRPVYVGRVVSAMVNCNDDQGVLQGRWDNNYSDGVSPMSWIGSVDILRRWKDYGCQRVKYGQCWVFAAVACTVLRCLGIPTRVVTNFNSAHDQNSNLLIEYFRNESGEIEGNKSEMIWNFHCWVESWMTRPDLEPGYEGWQALDPTPQEKSEGTYCCGPVPVRAIKEGHLNVKYDAPFVFAEVNADVVNWIRQKDGSLRKSINHLVVGLKISTKSVGRDEREDITHTYKYPEGSEEEREAFVRANHLNKLATKEEAQEETGVAMRIRVGQNMTMGSDFDIFAYITNGTAESHECQLLLCARIVSYNGVLGPVCSTNDLLNLTLDPFSENSIPLHILYEKYGDYLTESNLIKVRGLLIEPAANSYVLAERDIYLENPEIKIRVLGEPKQNRKLIAEVSLKNPLPVPLLGCIFTVEGAGLTKDQKSVEVPDPVEAGEQAKVRVDLLPTEVGLHKLVVNFECDKLKAVKGYRNVIIGPA
B2 was tested, and the “Increase in Fluorescent Intensity” value [7] was 3.4, the “effect of NaCl concentration on enzyme activity (in words)” value [6] was “did not show any increase” and the “Increase in Fluorescent Intensity” value [8] was 3.5. For the same molecule, the “Increase in Fluorescent Intensity” value [9] was 4.3.
